Data as given in publication PMC9079729, “Conservation of the conformational dynamics and ligand binding within M49 enzyme family” (RSC Advances, 2018).

Assays:
Test in all cases: Km for hydrolysis of fluorogenic substrate Arg2-2NA
[1] = substrate: N=C(N)NCCC[C@H](NC(=O)[C@@H](N)CCCNC(=N)N)C(=O)Nc1ccc2ccccc2c1; format: biochemical; conditions: other: pH 7.4 (20 mM Tris–HCl buffer), 25 °C, initial reaction rates
Description: (§1) The Km values for hydrolysis of fluorogenic substrate Arg2-2NA were determined at pH 7.4 (20 mM Tris–HCl buffer) and at 25 °C, from the initial reaction rates as previously described.[26]

[2] = substrate: N=C(N)NCCC[C@H](NC(=O)[C@@H](N)CCCNC(=N)N)C(=O)Nc1ccc2ccccc2c1; format: biochemical, yeast (Saccharomyces cerevisiae); conditions: other: pH 7.4 (20 mM Tris–HCl buffer), 25 °C, initial reaction rates, yeast DPP III
Description: as §1

[3] = substrate: N=C(N)NCCC[C@H](NC(=O)[C@@H](N)CCCNC(=N)N)C(=O)Nc1ccc2ccccc2c1; format: biochemical, Bacteroides thetaiotaomicron; conditions: other: pH 7.4 (20 mM Tris–HCl buffer), 25 °C, initial reaction rates, B. thetaiotaomicron DPP III
Description: as §1

B1: human DPP III (Homo sapiens) (protein)
chain: ADTQYILPNDIGVSSLDCREAFRLLSPTERLYAYHLSRAAWYGGLAVLLQTSPEAPYIYALLSRLFRAQDPDQLRQHALAEGLTEEEYQAFLVYAAGVYSNMGNYKSFGDTKFVPNLPKEKLERVILGSEAAQQHPEEVRGLWQTCGELMFSLEPRLRHLGLGKEGITTYFSGNCTMEDAKLAQDFLDSQNLSAYNTRLFKEVDGEGKPYYEVRLASVLGSEPSLDSEVTSKLKSYEFRGSPFQVTRGDYAPILQKVVEQLEKAKAYAANSHQGQMLAQYIESFTQGSIEAHKRGSRFWIQDKGPIVESYIGFIESYRDPFGSRGEFEGFVAVVNKAMSAKFERLVASAEQLLKELPWPPTFEKDKFLTPDFTSLDVLTFAGSGIPAGINIPNYDDLRQTEGFKNVSLGNVLAVAYATQREKLTFLEEDDKDLYILWKGPSFDVQVGLHELLGHGSGKLFVQDEKGAFNFDQETVINPETGEQIQSWYRSGETWDSKFSTIASSYEECRAESVGLYLCLHPQVLEIFGFEGADAEDVIYVNWLNMVRAGLLALEFYTPEAFNWRQAHMQARFVILRVLLEAGEGLVTITPTTGSDGRPDARVRLDRSKIRSVGKPALERFLRRLQVLKSTGDVAGGRALYEGYATVTDAPPECFLTLRDTVLLRKESRKLIVQPNTRLEGSDVQLLEYEASAAGLIRSFSERFPEDGPELEEILTQLATADARFWKGPSEAPSGQA
**Q.** B1 was tested. Which Km ([1]; human DPP III) did it give?
**A.** 6.0 µM

B2: yeast DPP III (Saccharomyces cerevisiae S288C) (protein)
chain: MSHFFADHDAPLSMLSVKTEYFPQLTDKEQKYAHFMSKASHAGSRVVMRQVSHESEPIFDLILAIHSKLNGKYPEDDITQKQQTGLYLEYVSQFLSNLGNFKSFGDTKFIPRCEVKFFKQLLELAKINPCSSPLTLSPVDVNHEFTSHHLFSTINELIDIGIYHVEEKAALLGFPSQGYTSAYYLGLPVTPEDMALLKEQLFAELAILPENTRINKVGENSFQIWVASENVKNQITETYPSGQITLSNAVTKVEFIFGDHSREMRLVASYLKEAQKFAANDTQKAMLQEYINHFVTGSSQAHKEAQKLWVKDISPVIETNIGFIETYREPSGIIGEFESLVAIQNKERTAKFSSLVNNAEEFISLLPWSKDYEKPIFNPPDFTSLEVLTFTGSGIPAGINIPNYDDVRLKIGFKNVSLGNILSAAAKSSSKHPPSFISQEDRPIFEKYQSDSFEVQVGIHELLGHGSGKLLTEFTDGFNFDKENPPLGLDGKPVSTYYKVGETWGSKFGQLAGPFEECRAEVIAMFLLTNKKILDIFGFHDVESQDKVIYAGYLQMARAGLLALEYWNPKTGKWGQPHMQARFSIMKTFMKHSTDKNFLKLEMNSTNDDFAIKLDKSLIKTAGHECVKDYLKHLHVYKCSGDVEQGSKYFIDRSTVTPDLASLRDIVLSKRLPRRQFIQSNSYIDDNNKVTLKEYDETPQGMLQSFLDREL
**Q.** Which Km [2] does the source give for B2 here?
**A.** 12 µM

B3: B. thetaiotaomicron DPP III (Bacteroides thetaiotaomicron VPI-5482) (protein)
chain: MAVTATILASCGGAKTTTAEADKFDYTVEQFADLQILRYKVPEFETLTLKQKELVYYLTQAALEGRDILFDQNGKYNLRIRRMLEAVYTNYKGDKSAPDFKNMEVYLKRVWFSNGIHHHYGMEKFVPGFSQDFLKQAVLGTDAQLLPLSEGQTAEQLCDELFPVMFDPAILAKRVNQADGEDLVLTSACNYYDGVTQQEAESFYGAMKDPKDETPVSYGLNSRLVKEDGKIQEKVWKVGGLYTQAIEKIVYWLKKAETVAENDAQKAVISKLIQFYETGSLKDFDEYAILWVKDLDSRIDFVNGFTESYGDPLGVKASWESLVNFKDLDATHRTEIISSNAQWFEDHSPVDKSFKKEKVKGVSAKVITAAILAGDLYPATAIGINLPNANWIRAHHGSKSVTIGNITDAYNKAAHGNGFNEEFVCNDEERQRIDQYGDLTGELHTDLHECLGHGSGKLLPGVDPDALKAYGSTIEEARADLFGLYYVADPKLVELKLVPDAEAYKAEYYTFLMNGLMTQLVRIEPGNNIEEAHMRNRQLIARWVFEKGAPDKVVEMVKKDGKTYVVVNDYEKVRQLFGELLAEIQRIKSTGDFEGARTLVENYAVKVDPALHAEVLARYKKLNLAPYKGFINPVYELVTDKDGNITDVTVSYNEDYVEQMLRYSKDYSPLPSVNN
**Q.** For B3, which Km [3] is on record?
**A.** 0.8 µM

B4: Porphyromonas gingivalis DPP III (Porphyromonas gingivalis W83) (protein)
chain: MTKETTQHRSGERIARFADIEVLSYRADLFGTLTPKQRMLCYHLSEAALRGRDITTIQNCRYNLWVRSLMERIYTHLSKSERTDDFALLEEYLFCIWFANGIHHHYSGAKFIARFSPGFLRAALREAGVELEPEEQVLLERVLYDTDFLPKQTEQSGEEDIIKASSVNFYAPGITRAEAESHYKNLIEALPENEKSCPPSFGLNTRLIRSTSGELKDEVCCIDGLYGPAIEAVVASLEAAIPYTENEEQAACIRLLCDYYRTGDIRLYDRFCIRWVENNRTRIDFINGFTEVYADPIGIHGSWEGLVHMQDEEAGRRTRIISEHAGWFEAHSPIDARFRKKNPHGISATVVNVLTIAGDSYPATPIGINLPNADWIRAEHGSKSVTIDNITDAYNHAARGTGLYEEFIPDEEVRRHVELHADLTDSLHTDLHECLGHGSGQLLPGVPGDALGEHASTLEETRADLFALYFLADPKMIELGLLTDPDAYKANYYKYMLNGLMTQLVRIKRGEEIEEAHMRNRALIARYVLEHAERPGAMSLVCEEGKTALVIKDYEAVRAIIAGLLTEVQRIKSEGDYTAGKALVERYAVHVDPLLHEEVLTRYAKLDIAPYKGFVNPRLRPVYNSEGRLTDATIEYTEGYAEQMLRYSAEYSFLPTDSPLLQEARRLRSHLRRAMDGVLSASMREKGLHYGINFGVTREHLLRLARTADASAPLADYLWRRDVRETKILATMIFPAEELTHEQATRLLREADNVELREQLTANLLERMPEAIRSIGRWIESKETTPDMMTGVLTLAARLFTRGIFPEDVPAEKLLTLAILHLSDEEQKAELRRASALLLKRYGRGSAERTKKVLCLLPESSQDTAPVLYELCEDIRFELDFYPKDE
**Q.** How did the Km ([1]; Porphyromonas gingivalis DPP III) turn out when B4 was run?
**A.** 0.3 µM

B5: Caldithrix abyssi DPP III (Caldithrix abyssi DSM 13497) (protein)
chain: MKRILLVLLTLVFLGAIACQKKEENKTEMVKLKRMIAQFAPTEIKYDHSLLDERKQKVVENLYRAAKIMDEIFLDQVYSKNFEIREQLRASSDPLDQLRLEYFTIMFGPFDRLNHDKPFIGNTPKPKGANFYPPDMTREEFENWLKAHPEDEAAFTSEFTVIRRQDGKLVAIPYSEYYKEYLTRAADYLKKAAEFADNPSLKKYLQLRAEAFLNNDYYESDLAWMDLNDHTIEVVIGPYEVYEDKLFNYKAAFEAFITLRDPVESAKLKKFVGYLDEMEKNLPIPDAYKNFNRGSESPMVVVQEVFSAGDTKAGVQTLAFNLPNDERVREAKGSKKVMLKNIHEAKFDKLLKPIAEKVLFAEQLPLVTFEGFFNHTLMHEISHGLGPGKIVLNGRQTEVKKELKETYSSIEECKADVLGMYNNLFMIEKGVYPPEFEKQIYVTFLAGIFRTIRFGINEAHGAGNAVIFNYLLEKGAYQFDPAAHRVKVNFEKIKDGVRDLANKVLTIQAQGDYMAAKNLLETYAVESEPIMIMRARLQELPVDIKPIFQIEKELGNSN
**Q.** With B5 as the protein, how does the Km ([1]; Caldithrix abyssi DPP III) read?
**A.** 15.9 µM

B6: Physcomitrella patens DPP III (Physcomitrium patens) (protein)
chain: MEGFQEEFSLGECLDVLTAAGLRTGDVKKRHLVHADGDYHRAVHVWLFVESTQELVLQKRADCKDSWPGLWDISSAGHISAGDTSLLTARRELQEELGITLPADAFEFLFDYLQECVINGGKYINNEYNDVYLVTLVDHIPVEAFTLQETEVSAVKYMKWQDYEDAVRKEDSSYVPCDVDGGYSALFSALRRRYEVDTSAKLEELQMHINRYVPVEIHGETTGLSKGDLLALSDTIRAAKLLDRIFLEQEWATNPALKDSLQAASGKSELDRLKFAYYLINKSPWSILDENDAFLTTADSAIQIAEGAVDESVTWGGKVRYRAAFPVEKAPGANFYPVDMDKEEFQAWKDGLDKGQQADATSFFTTIRRSGDIHDADGAKVHDLKIVPYSKEYATILKEASYLLHKAGDSAENPSLKRLLKAKADAFLSNDYYESDIAWMELDSPLDVTIGPYETYEDGLFGYKATFEAFIGIRDDEATQRLKLFSHNLQEMEDNLPMDDEYKSKTVTFSPIRVIQLLYNSGDVKGPQTVAFNLPNDDRIVKERGTAMVMLKNISQAKFDYILLPIANVCVEASQRGAVDFDSFFTHTICHECCHGIGPHNIVTPDGRASTVRLELQEVYSAIEEAKADIVGLWALHFLVDKGLLPRSLENTMYVSFLAGCFRSIRFGLEEAHGKGQALQFNFILEKGGFSYHPDGTFSVDYTKVRQCVEDLSRLILTIEAKGDKAGAEALLAKYAALTPQLQQSFDALQDVQVPVDIFPTFKLLDDIKL
**Q.** B6 was tested. Which Km ([1]; Physcomitrella patens DPP III) did it give?
**A.** 23.8 µM
